In US20190314452A1 (YUHAN, published 2019):

B1: DFD23 (Fc fusion)
chain: HGEGTFTSDVSSYLEGQAAKEFIAWLVKGRGEKEKEEQEERETKTPECPSHTQPLGVFLFPPKPKDTLMISRTPEVTCVVVDVSQEDPEVQFNWYVDGVEVHNAKTKPREEQFNSTYRVVSVLTVLHQDWLNGKEYKCKVSNKGLPSSIEKTISKAKGQPREPQVYTLPPSQEEMTKNQVSLTCLVKGFYPSDIAVEWESNGQPENNYKTTPPVLDSDGSFFLYSRLTVDKSRWQEGNVFSCSVMHEALHNHYTQKSLSLSLGKGGGGSGGGGSGGGGSHPIPDSSPLLQFGGQVRQRYLYTDDAQQTEAHLEIREDGTVGGAADQSPESLLQLKALKPGVIQILGVKTSRFLCQRPDGALYGSLHFDPEACSFREEIRPDGYNVYQSEAHGLPLHLPGNKSPHRDPAPRGPARFLPLPGLPPALPEPPGILAPQPPDVGSSDPLSMVTGLEAVRSPSYAS
B2: DFD59: GLP1(GEG)-HyFc40 (Fc fusion)
chain: HGEGTFTSDVSSYLEEQAAKEFIAWLVKGGGEKEKEEQEERETKTPECPSHTQPLGVFLFPPKPKDTLMISRTPEVTCVVVDVSQEDPEVQFNWYVDGVEVHNAKTKPREEQFNSTYRVVSVLTVLHQDWLNGKEYKCKVSNKGLPSSIEKTISKAKGQPREPQVYTLPPSQEEMTKNQVSLTCLVKGFYPSDIAVEWESNGQPENNYKTTPPVLDSDGSFFLYSRLTVDKSRWQEGNVFSCSVMHEALHNHYTQKSLSLSLGK

Target: human GLP-1 receptor (human, UniProt P43220 24-463)
Assay: cell-based or functional assay

Binder | in vitro GLP-1 activity (intracellular cAMP, EC50 compared)
B1 | 2 to 3 times lower than the fusion proteins containing other GLP-1 mutant sequences
B2 | ~2 times higher than DFD69, DFD112 and DFD114
